Where “and” joins values, the source holds several entries; their conditions need not be identical. Equal entries are not always repeated. Where two headings read alike, the source gives them in different places.
T1: recombinant human IL-23 (p19/p40) (human, UniProt Q9NPF7 20-189; P29460 23-328)
T1 construct: Bought heterodimer (R&D Systems or eBioscience); biotinylated in the alpha-screens; also called hIL-23
T1 sequence (looked up) 1: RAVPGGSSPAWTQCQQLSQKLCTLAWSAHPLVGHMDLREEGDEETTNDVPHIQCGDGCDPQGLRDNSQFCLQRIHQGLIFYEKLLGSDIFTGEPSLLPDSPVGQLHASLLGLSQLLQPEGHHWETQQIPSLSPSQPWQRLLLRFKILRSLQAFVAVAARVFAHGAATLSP
T1 sequence (looked up) 2: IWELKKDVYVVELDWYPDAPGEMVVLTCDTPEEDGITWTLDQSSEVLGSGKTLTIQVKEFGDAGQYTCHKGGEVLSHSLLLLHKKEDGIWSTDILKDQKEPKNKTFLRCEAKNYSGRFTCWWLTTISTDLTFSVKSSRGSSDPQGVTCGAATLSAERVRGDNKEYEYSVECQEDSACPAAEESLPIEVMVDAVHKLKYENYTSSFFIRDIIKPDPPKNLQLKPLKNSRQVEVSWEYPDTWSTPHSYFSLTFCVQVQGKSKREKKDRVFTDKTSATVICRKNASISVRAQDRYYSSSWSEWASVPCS

T2: recombinant human IL-12 (human, UniProt P29459 23-219; P29460 23-328)
T2 sequence (looked up) 1: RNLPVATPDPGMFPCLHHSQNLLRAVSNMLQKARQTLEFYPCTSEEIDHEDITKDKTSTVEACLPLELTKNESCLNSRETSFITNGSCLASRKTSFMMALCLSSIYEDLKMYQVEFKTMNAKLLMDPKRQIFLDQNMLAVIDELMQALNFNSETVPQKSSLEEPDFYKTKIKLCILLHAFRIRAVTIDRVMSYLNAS
T2 sequence (looked up) 2: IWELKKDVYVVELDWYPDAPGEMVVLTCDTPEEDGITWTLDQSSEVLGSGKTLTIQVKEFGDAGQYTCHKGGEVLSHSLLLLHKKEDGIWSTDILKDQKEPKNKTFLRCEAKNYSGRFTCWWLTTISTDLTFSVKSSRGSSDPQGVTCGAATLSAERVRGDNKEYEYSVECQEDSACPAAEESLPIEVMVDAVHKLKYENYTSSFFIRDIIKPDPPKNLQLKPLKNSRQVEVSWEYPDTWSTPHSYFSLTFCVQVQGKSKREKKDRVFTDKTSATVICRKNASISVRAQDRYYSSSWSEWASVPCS


Assays:
[1] = molecular target: T1, recombinant human IL-23 (p19/p40); assay: SPR Biacore, hIL-23
[2] = molecular target: T1, recombinant human IL-23 (p19/p40); assay: SPR Biacore, hIL-23 on chip
Procedure: (§1) Nanobody binding was assessed at one concentration (100 nM). Each Nanobody was injected for 4 minutes at a flow rate of 45 μl/min to allow binding to chip-bound antigen. Next, binding buffer without Nanobody was sent over the chip at the same flow rate to allow spontaneous dissociation of bound Nanobody.

recombinant human IL-12 [3] = molecular target: T2, recombinant human IL-12; assay: cell-based or functional assay
recombinant human IL-12 [4] = molecular target: T2, recombinant human IL-12; assay: alpha-screen, hIL-12/IL12Rbeta1-Fc
Procedure: Human IL-23R-Fc chimera and hIL12Rbeta1-Fc chimera (R&D Systems, Minneapolis, Minn., US) were coupled to acceptor beads according to manufacturer instructions (Perkin Elmer, Waltham, Mass., US).
To this mixture, the IL12Rbeta1 acceptor beads and the streptavidin donor beads were added and further incubated for 1 hour at RT.

[5] = molecular target: T1, recombinant human IL-23 (p19/p40); assay: cell-based or functional assay
cynomolgus IL-23 [6] = molecular target: cynomolgus IL-23 (cynomolgus); assay: cell-based or functional assay
[7] = molecular target: T1, recombinant human IL-23 (p19/p40); assay: cell-based or functional assay; remark: listed apart in the source
cynomolgus IL-23 [8] = molecular target: T3, cynomolgus IL-23 (cynomolgus); assay: SPR Biacore, cyno IL-23 on chip
T3 construct: also called cyno IL-23; cIL-23

[9] = molecular target: T1, recombinant human IL-23 (p19/p40); assay: cell-based or functional assay; remark: listed apart in the source
cynomolgus IL-23 [10] = molecular target: T3, cynomolgus IL-23; assay: cell-based or functional assay; remark: listed apart in the source
[11] = molecular target: T1, recombinant human IL-23 (p19/p40); assay: SPR Biacore, hIL-23 on chip; remark: listed apart in the source
Procedure: as §1

| Binder | koff [2] | IC50 (recombinant human IL-12 [4]) | IC50, mouse splenocyte assay (mIL-22) [5] | IC50, mouse splenocyte assay (mIL-22) (cynomolgus IL-23 [6]) | koff (cynomolgus IL-23 [8]) | also measured |
| --- | --- | --- | --- | --- | --- | --- |
| P23IL81A12v4 (VHH, Final humanization variant of 81A12) VHH: EVQLLESGGGLVQPGGSLRLSCAASGRTLSSYAMGWFRQAPGKGREFVSRISQGGTAIYYADSVKGRFTISRDNSKNTLYLQMNSLRPEDTAVYYCAKDPSPYYRGSAYLLSGSYDSWGQGTLVTVSS | – | – | – | – | – | Kd [1]: 0.33 nM; koff [1]: 0.0002 s⁻¹; kon [1]: 600000 M⁻¹ s⁻¹ |
| P23IL3B8 (VHH, p40+ Nanobody; c-myc, His6-tagged) VHH: EVQLVESGGGLVQPGGSLRLSCAASGFTFSSSVMFWLRQAPGKGLEWLSTIKPTGSTIYPGSGKGRFTISRDNAKNTLYLQINNLKPEDTALYYCARDIGGTVRGQGTQVTVSS | 0.0035 s⁻¹ | 0.35 nM | 0.408 nM | 1.79 nM | – | IC50, PHA blast proliferation, 1 pM hIL-12; nc = no complete blocking (recombinant human IL-12 [3]): 1500 pM |
| P23IL-121A2-9GS-81G2 (bispecific antibody) EVQLVESGGGLVQAGGSLRLSCAASGSIFNFNYMGWFRQAPGKEREFVAAIRWSGSSTYYADSVKGRFTISRDDAKNTVALQMNSLKPEDTAIYYCALRKGIPYSTSDRVIKGVNDYDYWGQGTQVTVSSGGGGSGGGSEVQLVESGGGLVQPGGSLRLSCIASGLPFSTKSMGWFRQAPGKEREFVARISPGGTSRYYGDFVKGRFAISRDNAKNTTWLQMNSLKAEDTAVYYCASGERSTYIGSNYYRTNEYDYWGTGTQVTVSS | – | – | – | – | – | IC50, splenocyte assay, 19 pM hIL-23 [7]: 740 pM |
| P23IL81E10 (VHH, p40+ Nanobody) VHH: EVQLVESGGGLVQAGGSLRLSCVASGRTFNTYGMGWFRQAPGKEREFVAANNWSGGATSYADSVKGRFTISRDNAKNTVFLQMNTLKPEDTAVYYCAAADRGGGWLVVRENDYDYWGQGTQVTVSS | 0.00263 s⁻¹ | 23 nM | – | – | 0.00132 s⁻¹ and 0.0012 s⁻¹ | – |
| P23IL 3F11 (VHH, p40+ Nanobody; c-myc, His6-tagged) VHH: EVQLVESGGGLVQAGGSLRLSCAASGSIFSINAMGWFRQAPGKERQFVAAINWSTGSTYYSDSVKGRFTISRDNAKNTVYLQMNSLKPEDTAVYFCASGYLFPSSRGSQYDYWGQGTQVTVSS | 0.00146 s⁻¹ | – | – | – | – | – |
| P23IL119A3-35GS-81A12 (bispecific antibody) EVQLVESGGGLVQAGGSLRLSCAASGRIFSLPASGNIFNLLTIAWHRQAPGMQRELVATINSGSRTNYADSVKGRFTISRDNAQKTVYLQMNNLKPEDTAVYYCQTSGSGSPNFWGQGTQVTVSSGGGGSGGGGSGGGGSGGGGSGGGGSGGGGSGGGGSEVQLVESGGGLVQAGGSLRLSCAASGRTLSSYAMGWFRQAPGKEREFVARISQGGTAIYYADSVKGRFTISRDNAKNTVYLQMNSLKPEDTAVYYCAKDPSPYYRGSAYLLSGSYDSWGQGTQVTVSS | – | – | – | – | – | IC50, splenocyte assay, 19 pM hIL-23 [9]: 7 pM; IC50, splenocyte assay, 3.8 pM cIL-23 (cynomolgus IL-23 [10]): 5 pM |
| P23IL3G10 (VHH, p40+ Nanobody; c-myc, His6-tagged) VHH: EVQLVESGGGVVQAGESLRLSCAASGYNVKDYEMGWFRQAPGMEREFAAAISWRGSSTYYADSVKGRFTISRDNAKNTVYLQMSSLKPEDTAVYYCAAGRLYPSSRSRDYDYWGQGTQVTVSS | 0.00197 s⁻¹ | 0.9 nM | 2.33 nM | 9.45 nM | 0.002 s⁻¹ and 0.004 s⁻¹ | IC50, PHA blast proliferation, 1 pM hIL-12 (recombinant human IL-12 [3]): 194 pM |
| P23IL119A3-9GS-81G2 (bispecific antibody) EVQLVESGGGLVQAGGSLRLSCAASGRIFSLPASGNIFNLLTIAWHRQAPGMQRELVATINSGSRTNYADSVKGRFTISRDNAQKTVYLQMNNLKPEDTAVYYCQTSGSGSPNFWGQGTQVTVSSGGGGSGGGSEVQLVESGGGLVQPGGSLRLSCIASGLPFSTKSMGWFRQAPGKEREFVARISPGGTSRYYGDFVKGRFAISRDNAKNTTWLQMNSLKAEDTAVYYCASGERSTYIGSNYYRTNEYDYWGTGTQVTVSS | – | – | – | – | – | IC50, splenocyte assay, 19 pM hIL-23 [7]: 1990 pM |
| P23IL3C1 (VHH, p40+ Nanobody) VHH: EVQLVESGGGSVQAGGSLRLSCKVSGIMFSDKGMGWFRQAPGKERETVAATNWSGGSTYYADSVKGRFTISRDNYKNTLHLQMASLKPEDTGIYYCAAAGDSWNSRRIEDYDYWGQGTPVTVSS | 0.000294 s⁻¹ | 1 nM | – | – | 5.9e-05 s⁻¹ | IC50, mouse splenocyte assay (mIL-22); nc = blocking not complete [5]: 0.51 nM; IC50, mouse splenocyte assay (mIL-22); nc = blocking not complete (cynomolgus IL-23 [6]): 0.517 nM |
| P23IL 20F2 (VHH, p40- Nanobody) VHH: EVQLVESGGGLVQPGGSLRLSCAASGFSLDYTAIGWFRQAPGKEREVVSCFTSVPGSTYHADSVKGRFTIASDNAKNTVYLQMNDLKPEDTAVYYCATDAQTYYSGSYCGRTPQEYPYWGQGTQVTVSS | – | – | – | – | – | koff [11]: 0.00054 s⁻¹ |

Now from value to binder, other results behind:

| koff [2] | IC50 (recombinant human IL-12 [4]) | IC50, mouse splenocyte assay (mIL-22) [5] | IC50, mouse splenocyte assay (mIL-22) (cynomolgus IL-23 [6]) | koff (cynomolgus IL-23 [8]) | Binder | also measured |
| --- | --- | --- | --- | --- | --- | --- |
| 0.00051 s⁻¹ | 1.63 nM | – | – | – | P23IL 21C4 (VHH, p40+ Nanobody; c-myc, His6-tagged) VHH: EVQLVESGGGLVQAGGSLRLSCAASGRTFSGYDMGWFRQAPGKEREFVAQISRHNSNTYYADAVKGRFTISRDNAKNTVSLQMNSLKPEDTAVYYCAIGSLFPSSRERDYDYWGQGTQVTVSS | – |
| 0.00029 s⁻¹ | – | – | – | 7e-05 s⁻¹ | P23IL 84G12 (VHH, also called P23ILp40-PMP84G12) VHH: EVQLVESGGRLVQAGGSLRLSCAASGRTFDSNPMGWFRQAPGKKREFVAIISGNGGITNYANSVKGRFTISRDNAKNTIYLQMNSLKPEDTAVYYCAASGLYGSGSVYDLMYDYWGQGTQVTVSS | – |
| 0.00018 s⁻¹ | 1.2 nM | 0.935 nM | 5.46 nM | 0.0012 s⁻¹ and 0.0025 s⁻¹ | P23IL-23E3 (VHH, p40+ Nanobody) VHH: EVQLVESGGELVQAGGSLRLSCAASGSIVSISAMAWYRQAPGKQRERVATITRGGTPDYADSAKDRFTISRDNAKNTVSLQMNNLKPEDTAVYYCKAALRTPTHDYNYYDYWGQGTQVTVSS | IC50, PHA blast proliferation, 1 pM hIL-12; nc = no complete blocking (recombinant human IL-12 [3]): 1730 pM |
| 0.00023 s⁻¹ | 1.3 nM | 0.186 nM | 1.27 nM | 0.00023 s⁻¹ | P23IL-22E11 (VHH) VHH: EVQLVESGGGLVQAGGSLRLSCAASGRTFSWSAVGWFRQAPGKEREFVAAIRWSGGSPYYADSVKDRFTISRDNAKNTVYLQMNSLRPEDTAVYLCGETSLFPTSRGSHYDTWGQGTQVTVSS | IC50, PHA blast proliferation, 1 pM hIL-12 (recombinant human IL-12 [3]): 159 pM |
| 0.0011 s⁻¹ | 1.2 nM | 0.79 nM | 32.5 nM | 0.00067 s⁻¹ | P23IL-23H3 (VHH, p40+ Nanobody) VHH: EVQLVESGGGLVQAGDSLRLSCAASGRSFSNDAMGWFRQAPGKERSFVAAINWSGELTGYAGSVKGRFTISRDGVENMVFLQMNSLVPEDTGVYYCAAVEGRDYYRGAQYYDYWGQGTQVTVSS | IC50, PHA blast proliferation, 1 pM hIL-12 (recombinant human IL-12 [3]): 174 pM |
| 0.00017 s⁻¹ | 1.9 nM | 0.116 nM | 0.705 nM | 0.00023 s⁻¹ | P23IL-22D7 (VHH, p40+ Nanobody) VHH: EVQLVESGGGLVQAGGSLRLSCASSGRTFSIYARGWFRQAPGKEREFVAAIRSGLTTYSDSVKGRFTISRDIAKNTVFLQMNSLKSEDTAVYYCAAAVNYFTDFTDYSKRDSYDYWGQGTQVTVSS | IC50, PHA blast proliferation, 1 pM hIL-12 (recombinant human IL-12 [3]): 116 pM |
| 0.0016 s⁻¹ | 0.96 nM | – | – | – | P23IL 84A12 (VHH, p40+ Nanobody; c-myc, His6-tagged) VHH: EVQLVESGGGVVQAGESLRLSCAASGRSFSDYEMGWFRQAPGTEREFVASINRRGSSTFYADSVKGRFTISRDNTKNTVYLQMSSLKPEDTAVYLCAAGWLFPSSRSRDYDYWGQGTQVTVSS | – |
